Assay [1] addresses T1, Yah1-GST fusion protein (S. cerevisiae, UniProt Q12184 17-172).
T1 chain: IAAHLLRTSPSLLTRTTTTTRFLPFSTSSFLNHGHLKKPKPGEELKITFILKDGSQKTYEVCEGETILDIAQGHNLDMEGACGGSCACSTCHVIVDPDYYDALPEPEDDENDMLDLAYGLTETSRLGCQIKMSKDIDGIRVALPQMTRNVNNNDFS
The assay can be described thus: BLI; kd1 of 2:1 fit.

Assay [2] concerns the target T1, Yah1-GST fusion protein. Nature of the assay: BLI; anaerobic, reduced Yah1 (Fig. 6C); kd2 of 2:1 fit, second site.
For assay [3], the target named is T1, Yah1-GST fusion protein. Nature of the assay: BLI; anaerobic, reduced Yah1 (Fig. 6C); KD1 of 2:1 fit (40%).
Assay [4] addresses T1, Yah1-GST fusion protein. Nature of the assay: BLI; anaerobic, reduced Yah1; kd2 of 2:1 fit, second site.
The target of assay [5] is T1, Yah1-GST fusion protein. The assay can be described thus: BLI; anaerobic, reduced Yah1; kd1 of 2:1 fit.
The target of assay [6] is T1, Yah1-GST fusion protein. The assay can be described thus: BLI; KD2 of 2:1 heterogeneous ligand fit (54%), second site.
The target of assay [7] is T1, Yah1-GST fusion protein. The assay can be described thus: BLI; anaerobic, reduced Yah1; KD2 of 2:1 fit (39%), second site.
The target in assay [8] is T1, Yah1-GST fusion protein. The assay can be described thus: BLI; kd2 of 2:1 fit, second site.
The target in assay [9] is T1, Yah1-GST fusion protein. Nature of the assay: BLI; anaerobic, reduced Yah1 (Fig. 6C); kd1 of 2:1 fit.
In assay [10] the target is T1, Yah1-GST fusion protein. The assay can be described thus: BLI; anaerobic, reduced Yah1; KD1 of 2:1 fit (61%).
The target of assay [11] is T1, Yah1-GST fusion protein. The assay can be described thus: BLI; KD1 of 2:1 heterogeneous ligand fit (46%).
Assay [12] deals with T1, Yah1-GST fusion protein. Nature of the assay: BLI; anaerobic, reduced Yah1 (Fig. 6C); KD2 of 2:1 fit (60%), second site.

B1: NIA complex (Nfs1–Isd11–ACPEc) (complex)
chain 1: PAAGVKLDDNFSLETHTDIQAAAKAQASARASASGTTPDAVVASGSTAMSHAYQENTGFGTRPIYLDMQATTPTDPRVLDTMLKFYTGLYGNPHSNTHSYGWETNTAVENARAHVAKMINADPKEIIFTSGATESNNMVLKGVPRFYKKTKKHIITTRTEHKCVLEAARAMMKEGFEVTFLNVDDQGLIDLKELEDAIRPDTCLVSVMAVNNEIGVIQPIKEIGAICRKNKIYFHTDAAQAYGKIHIDVNEMNIDLLSISSHKIYGPKGIGAIYVRRRPRVRLEPLLSGGGQERGLRSGTLAPPLVAGFGEAARLMKKEFDNDQAHIKRLSDKLVKGLLSAEHTTLNGSPDHRYPGCVNVSFAYVEGESLLMALRDIALSSGSACTSASLEPSYVLHALGKDDALAHSSIRFGIGRFSTEEEVDYVVKAVSDRVKFLRELSPLWEMVQEGIDLNSIKWSGH
chain 2: MPGFTAPTRRQVLSLYKEFIKNANQFNNYNFREYFLSKTRTTFRKNMNQQDPKVLMNLFKEAKNDLGVLKRQSVISQMYTFDRLVVEPLQGRKH
chain 3: MSTIEERVKKIIGEQLGVKQEEVTNNASFVEDLGADSLDTVELVMALEEEFDTEIPDEEAEKITTVQAAIDYINGHQA
B1: the off-rate constant (koff) is 3.54e-07 s⁻¹ with Yah1-GST fusion protein [1]; 0.00248 s⁻¹ in the assay with Yah1-GST fusion protein [2]; 0.00204 s⁻¹ with Yah1-GST fusion protein [4]; 3.88e-07 s⁻¹ with Yah1-GST fusion protein [5]; 0.0267 s⁻¹ in the assay with Yah1-GST fusion protein [8]; 4.91e-07 s⁻¹ with Yah1-GST fusion protein [9]. For the same molecule, the equilibrium dissociation constant (Kd) with Yah1-GST fusion protein [3] was found to be 0.446 nM; in the assay with Yah1-GST fusion protein [6], 280 nM; with Yah1-GST fusion protein [7], 114 nM; with Yah1-GST fusion protein [10], 0.82 nM; with Yah1-GST fusion protein [11], 0.0966 nM; in the assay with Yah1-GST fusion protein [12], 65.8 nM.
